Publication PMC7699624

Target: Recombinant P-selectin protein (UniProt P16109)
Experiment: SPR; BIAcore T200; recombinant P-selectin immobilised by carbodiimide chemistry on a CM4 sensor chip (ligand); PSGL-1-targeted and non-targeted liposomes as analyte

UniProt P16109, sequence (P16109 42-830): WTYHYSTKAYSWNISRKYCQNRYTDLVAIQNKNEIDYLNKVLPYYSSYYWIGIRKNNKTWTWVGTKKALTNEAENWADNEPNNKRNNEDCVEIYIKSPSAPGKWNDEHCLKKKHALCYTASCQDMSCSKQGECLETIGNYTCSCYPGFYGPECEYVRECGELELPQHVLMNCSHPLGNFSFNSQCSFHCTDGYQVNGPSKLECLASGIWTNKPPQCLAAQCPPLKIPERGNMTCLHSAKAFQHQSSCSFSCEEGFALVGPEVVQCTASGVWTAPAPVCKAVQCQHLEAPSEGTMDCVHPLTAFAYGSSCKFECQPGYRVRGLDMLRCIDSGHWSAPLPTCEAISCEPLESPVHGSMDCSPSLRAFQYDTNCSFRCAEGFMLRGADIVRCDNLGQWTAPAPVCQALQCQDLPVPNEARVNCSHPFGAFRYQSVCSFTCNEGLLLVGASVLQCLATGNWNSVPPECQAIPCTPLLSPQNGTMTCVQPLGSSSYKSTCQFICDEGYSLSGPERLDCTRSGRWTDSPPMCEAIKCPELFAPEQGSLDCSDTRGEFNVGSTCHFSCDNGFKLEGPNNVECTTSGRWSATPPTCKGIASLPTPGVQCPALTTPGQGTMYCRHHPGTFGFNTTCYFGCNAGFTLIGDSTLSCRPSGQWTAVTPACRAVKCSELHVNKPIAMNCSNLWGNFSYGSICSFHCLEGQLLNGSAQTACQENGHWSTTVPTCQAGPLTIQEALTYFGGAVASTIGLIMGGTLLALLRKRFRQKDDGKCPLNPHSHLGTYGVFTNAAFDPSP

fold increase in binding against non-targeted liposomes: 8 fold
Substance: Recombinant P-selectin glycoprotein ligand-1 (PSGL-1) protein, conjugated to the surface of liposomes (from UniProt Q14242 42-412)
